Measurements as given in patent publication US20150017162A1 (OMEROS, published 2015).
Values belong to the binder of their own block, whether it stands above or below them.

Experiments:
[1] = target: T1, human MASP-2 (human, UniProt O00187 16-686); assay: cell-based or functional assay
[2] = target: T1, human MASP-2; assay: cell-based or functional assay; remark: listed apart in the source

T1 sequence (O00187 16-686): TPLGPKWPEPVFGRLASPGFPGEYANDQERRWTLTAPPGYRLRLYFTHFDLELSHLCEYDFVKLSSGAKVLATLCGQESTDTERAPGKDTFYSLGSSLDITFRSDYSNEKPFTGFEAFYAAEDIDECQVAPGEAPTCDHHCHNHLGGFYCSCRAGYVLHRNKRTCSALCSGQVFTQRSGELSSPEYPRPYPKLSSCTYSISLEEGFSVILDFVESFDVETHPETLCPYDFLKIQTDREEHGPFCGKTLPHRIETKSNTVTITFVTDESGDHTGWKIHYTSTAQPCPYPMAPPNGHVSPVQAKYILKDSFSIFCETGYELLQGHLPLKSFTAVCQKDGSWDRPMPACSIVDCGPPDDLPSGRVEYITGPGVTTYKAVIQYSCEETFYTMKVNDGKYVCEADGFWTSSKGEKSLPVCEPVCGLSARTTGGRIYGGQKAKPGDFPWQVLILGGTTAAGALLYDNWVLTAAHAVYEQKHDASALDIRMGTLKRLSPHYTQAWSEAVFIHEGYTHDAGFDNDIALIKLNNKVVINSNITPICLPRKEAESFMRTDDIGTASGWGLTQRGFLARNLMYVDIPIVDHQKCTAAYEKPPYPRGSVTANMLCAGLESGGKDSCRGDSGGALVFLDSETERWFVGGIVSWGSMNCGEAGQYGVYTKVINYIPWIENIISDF

B2: scFv clone 17N16 (scFv)
scFv: QVQLQQSGPGLVKPSQTLSLTCAISGDSVSSTSAAWNWIRQSPSRGLEWLGRTYYRSKWYNDYAVSVKSRITINPDTSKNQFSLQLNSVTPEDTAVYYCARDPFGVPFDIWGQGTMVTVSSKLSGSASAPKLEEGEFSEARVSYVLTQPPSVSVAPGQTARITCGGNNIGSKNVHWYQQKPGQAPVLVVYDDSDRPSGIPERFSGSNSGNTATLTVSRVEAGDEADYYCQVWDTTTDHVVFGGGTKLTVLAAAGSEQKLISEEDLNSHHHHHH
IC50, C3 assay, 1% human serum (average value) [1]: 68 nM

B4: scFv daughter clone 17N16m_d17N9 (scFv)
chain: QVQLQQSGPGLVKPSQTLSLTCAISGDSVSSTSAAWNWIRQSPSRGLEWLGRTYYRSKWYNDYAVSVKSRITINPDTSKNQFSLQLNSVTPEDTAVYYCARDPFGVPFDIWGQGTMVTVSSSYELIQPPSVSVAPGQTATITCAGDNLGKKRVHWYQQRPGQAPVLVIYDDSDRPSGIPDRFSASNSGNTATLTITRGEAGDEADYYCQVWDIATDHVVFGGGTKLTVLAAAGSEQKLISE
IC50, C3 assay, 1% human serum (average value) [1]: 48 nM

Other lines, results leading:

IC50, C3 assay, 1% human serum (average value) [1]: 38 nM
B1: scFv clone 17D20 (scFv)
scFv: QVTLKESGPVLVKPTETLTLTCTVSGFSLSRGKMGVSWIRQPPGKALEWLAHIFSSDEKSYRTSLKSRLTISKDTSKNQVVLTMTNMDPVDTATYYCARIRAGGIDYWGQGTLVTVSSKLSGSASAPKLEEGEFSEARVQPVLTQPPSVSVSPGQTASITCSGDKLGDKFAYWYQQKPGHSPVLVIYQDNKRPSGIPGRFSGSNSGNTATLTISGTQAMDEADYYCQAWDSSTAVFGTGTKVTVLAAAGSEQKLISEEDLNSHHHHHH

IC50, C4 deposition in full human serum [2]: 0.0318 ng/µL
B3: NimoAb101 (antibody, V domains shown)
VH: EVQLVESGGGLVQPGRSLKLSCLVSGFTFSNFGMNWIRQAPGKGLEWVASISSGGTYIYHADTLKGRFTISRENAKNTLYLQMTSLRSEDTALYYCARGPYHSRYIPYLMDAWGQGASVTVSS
VL: DIQMTQSPGSLCASLGETVTIECRASDDIYSNLAWYQQKPGNSPQLLIFDGNRLADGVPSRFSGSGSGTQYSLKMKSLQFEDVASYFCQQYNNYPLTFGSGTKLEIKR
